Experimental data from US11708423B2, “Chimeric engulfment receptor molecules and methods of use” (CERO THERAPEUTICS, INC., priority 2017, dated 2023).

B1: CER108: Tim4 binding and transmembrane domains, DAP12 primary and TLR8 secondary signaling domains; SEQ ID NO:137 (protein)
chain: MSKGLLLLWLVTELWWLYLTPAASEDTIIGFLGQPVTLPCHYLSWSQSRNSMCWGKGSCPNSKCNAELLRTDGTRIISRKSTKYTLLGKVQFGEVSLTISNTNRGDSGVYCCRIEVPGWFNDVKKNVRLELRRATTTKKPTTTTRPTTTPYVTTTTPELLPTTVMTTSVLPTTTPPQTLATTAFSTAVTTCPSTTPGSFSQETTKGSAFTTESETLPASNHSQRSMMTISTDIAVLRPTGSNPGILPSTSQLTTQKTTLTTSESLQKTTKSHQINSRQTILIIACCVGFVLMVLLFLAFLYFLGRLVPRGRGAAEAATRKQRITETESPYQELQGQRSDVYSDLNTQRPYYKHHLFYWDVWFIYNVCLAKVKGYRSLSTSQTFYDAYISYDTKDASVTDWVINELRYHLEESRDKNVLLCLEERDWDPGLAIIDNLMQSINQSKKTVFVLTKKYAKSWNFKTAFYLALQRLMDENMDVIIFILLEPVLQHSQYLRLRQRICKSSILQWPDNPKAEGLFWQTLRNVVLTENDSRYNNMYVDSIKQY
modifications: CER108 protein
B2: CER27: Tim4 binding and transmembrane domains, TLR2 signaling domain; SEQ ID NO:93 (protein)
chain: MSKGLLLLWLVTELWWLYLTPAASEDTIIGFLGQPVTLPCHYLSWSQSRNSMCWGKGSCPNSKCNAELLRTDGTRIISRKSTKYTLLGKVQFGEVSLTISNTNRGDSGVYCCRIEVPGWFNDVKKNVRLELRRATTTKKPTTTTRPTTTPYVTTTTPELLPTTVMTTSVLPTTTPPQTLATTAFSTAVTTCPSTTPGSFSQETTKGSAFTTESETLPASNHSQRSMMTISTDIAVLRPTGSNPGILPSTSQLTTQKTTLTTSESLQKTTKSHQINSRQTILIIACCVGFVLMVLLFLAFLHRFHGLWYMKMMWAWLQAKRKPRKAPSRNICYDAFVSYSERDAYWVENLMVQELENFNPPFKLCLHKRDFIPGKWIIDNIIDSIEKSHKTVFVLSENFVKSEWCKYELDFSHFRLFDENNDAAILILLEPIEKKAIPQRFCKLRKIMNTKTYLEWPMDEAQREGFWVNLRAAIKS
modifications: CER27 chimeric engulfment receptor
B3: CER124: Tim4 binding and transmembrane domains, TLR2 primary and NFAM1 secondary signaling domains; SEQ ID NO:151 (protein)
chain: MSKGLLLLWLVTELWWLYLTPAASEDTIIGFLGQPVTLPCHYLSWSQSRNSMCWGKGSCPNSKCNAELLRTDGTRIISRKSTKYTLLGKVQFGEVSLTISNTNRGDSGVYCCRIEVPGWFNDVKKNVRLELRRATTTKKPTTTTRPTTTPYVTTTTPELLPTTVMTTSVLPTTTPPQTLATTAFSTAVTTCPSTTPGSFSQETTKGSAFTTESETLPASNHSQRSMMTISTDIAVLRPTGSNPGILPSTSQLTTQKTTLTTSESLQKTTKSHQINSRQTILIIACCVGFVLMVLLFLAFLHRFHGLWYMKMMWAWLQAKRKPRKAPSRNICYDAFVSYSERDAYWVENLMVQELENFNPPFKLCLHKRDFIPGKWIIDNIIDSIEKSHKTVFVLSENFVKSEWCKYELDFSHFRLFDENNDAAILILLEPIEKKAIPQRFCKLRKIMNTKTYLEWPMDEAQREGFWVNLRAAIKSLWNKKRMRGPGKDPTRKCPDPRSASSPKQHPSESVYTALQRRETEVYACIENEDGSSPTAKQSPLSQERPHRFEDDGELNLVYENL
modifications: CER124 protein
B4: CER127: Tim4 binding and transmembrane domains, TRAF2 primary and TLR2 secondary signaling domains; SEQ ID NO:175 (protein)
chain: MSKGLLLLWLVTELWWLYLTPAASEDTIIGFLGQPVTLPCHYLSWSQSRNSMCWGKGSCPNSKCNAELLRTDGTRIISRKSTKYTLLGKVQFGEVSLTISNTNRGDSGVYCCRIEVPGWFNDVKKNVRLELRRATTTKKPTTTTRPTTTPYVTTTTPELLPTTVMTTSVLPTTTPPQTLATTAFSTAVTTCPSTTPGSFSQETTKGSAFTTESETLPASNHSQRSMMTISTDIAVLRPTGSNPGILPSTSQLTTQKTTLTTSESLQKTTKSHQINSRQTILIIACCVGFVLMVLLFLAFLMAAASVTPPGSLELLQPGFSKTLLGTKLEAKYLCSACRNVLRRPFQAQCGHRYCSFCLASILSSGPQNCAACVHEGIYEEGISILESSSAFPDNAARREVESLPAVCPSDGCTWKGTLKEYESCHEGRCPLMLTECPACKGLVRLGEKERHLEHECPERSLSCRHCRAPCCGADVKAHHEVCPKFPLTCDGCGKKKIPREKFQDHVKTCGKCRVPCRFHAIGCLETVEGEKQQEHEVQWLREHLAMLLSSVLEAKPLLGDQSHAGSELLQRCESLEKKTATFENIVCVLNREVERVAMTAEACHRFHGLWYMKMMWAWLQAKRKPRKAPSRNICYDAFVSYSERDAYWVENLMVQELENFNPPFKLCLHKRDFIPGKWIIDNIIDSIEKSHKTVFVLSENFVKSEWCKYELDFSHFRLFDENNDAAILILLEPIEKKAIPQRFCKLRKIMNTKTYLEWPMDEAQREGFWVNLRAAIKS
modifications: CER127 protein
B5: CER30: Tim4 binding and transmembrane domains, Traf2 signaling domain; SEQ ID NO:96 (protein)
chain: MSKGLLLLWLVTELWWLYLTPAASEDTIIGFLGQPVTLPCHYLSWSQSRNSMCWGKGSCPNSKCNAELLRTDGTRIISRKSTKYTLLGKVQFGEVSLTISNTNRGDSGVYCCRIEVPGWFNDVKKNVRLELRRATTTKKPTTTTRPTTTPYVTTTTPELLPTTVMTTSVLPTTTPPQTLATTAFSTAVTTCPSTTPGSFSQETTKGSAFTTESETLPASNHSQRSMMTISTDIAVLRPTGSNPGILPSTSQLTTQKTTLTTSESLQKTTKSHQINSRQTILIIACCVGFVLMVLLFLAFLMAAASVTPPGSLELLQPGFSKTLLGTKLEAKYLCSACRNVLRRPFQAQCGHRYCSFCLASILSSGPQNCAACVHEGIYEEGISILESSSAFPDNAARREVESLPAVCPSDGCTWKGTLKEYESCHEGRCPLMLTECPACKGLVRLGEKERHLEHECPERSLSCRHCRAPCCGADVKAHHEVCPKFPLTCDGCGKKKIPREKFQDHVKTCGKCRVPCRFHAIGCLETVEGEKQQEHEVQWLREHLAMLLSSVLEAKPLLGDQSHAGSELLQRCESLEKKTATFENIVCVLNREVERVAMTAEAC
modifications: CER30 chimeric engulfment receptor
B6: CER129: Tim4 binding and transmembrane domains, TLR8 primary and TRAF2 secondary signaling domains; SEQ ID NO:177 (protein)
chain: MSKGLLLLWLVTELWWLYLTPAASEDTIIGFLGQPVTLPCHYLSWSQSRNSMCWGKGSCPNSKCNAELLRTDGTRIISRKSTKYTLLGKVQFGEVSLTISNTNRGDSGVYCCRIEVPGWFNDVKKNVRLELRRATTTKKPTTTTRPTTTPYVTTTTPELLPTTVMTTSVLPTTTPPQTLATTAFSTAVTTCPSTTPGSFSQETTKGSAFTTESETLPASNHSQRSMMTISTDIAVLRPTGSNPGILPSTSQLTTQKTTLTTSESLQKTTKSHQINSRQTILIIACCVGFVLMVLLFLAFLHHLFYWDVWFIYNVCLAKVKGYRSLSTSQTFYDAYISYDTKDASVTDWVINELRYHLEESRDKNVLLCLEERDWDPGLAIIDNLMQSINQSKKTVFVLTKKYAKSWNFKTAFYLALQRLMDENMDVIIFILLEPVLQHSQYLRLRQRICKSSILQWPDNPKAEGLFWQTLRNVVLTENDSRYNNMYVDSIKQYMAAASVTPPGSLELLQPGFSKTLLGTKLEAKYLCSACRNVLRRPFQAQCGHRYCSFCLASILSSGPQNCAACVHEGIYEEGISILESSSAFPDNAARREVESLPAVCPSDGCTWKGTLKEYESCHEGRCPLMLTECPACKGLVRLGEKERHLEHECPERSLSCRHCRAPCCGADVKAHHEVCPKFPLTCDGCGKKKIPREKFQDHVKTCGKCRVPCRFHAIGCLETVEGEKQQEHEVQWLREHLAMLLSSVLEAKPLLGDQSHAGSELLQRCESLEKKTATFENIVCVLNREVERVAMTAEAC
modifications: CER129 protein

test system: H1975 lung adenocarcinoma cells; assay: LDH assay, H1975 cells, 48 hours co-culture with 1 μM Osimeritinib; format: cell-based; conditions: E:T 1:1, 48 hours, CD4+ T cells
Source text: CER30 comprises a Tim4 binding domain, Tim4 transmembrane domain, and an engulfment signaling domain comprising a primary engulfment signaling domain comprising a TRAF2 signaling domain. CER30 has a polypeptide sequence as set forth in SEQ ID NO:96. CER110 has a polypeptide sequence of SEQ ID NO:125 and comprises a Tim4 binding domain, Tim4 transmembrane domain, and an engulfment signaling domain comprising a primary engulfment signaling domain comprising a TRAF6 signaling domain and a secondary engulfment signaling domain comprising a DAP12 signaling domain. CER112 has a polypeptide sequence of SEQ ID NO:128 and comprises a Tim4 binding domain, Tim4 transmembrane domain, and an engulfment signaling domain comprising a primary engulfment signaling domain comprising a TRAF6 signaling domain and a secondary engulfment signaling domain comprising a NFAM1 signaling domain. CER127 has a polypeptide sequence of SEQ ID NO:175 and comprises a Tim4 binding domain, Tim4 transmembrane domain, and an engulfment signaling domain comprising a primary engulfment signaling domain comprising a TRAF2 signaling domain and a secondary engulfment signaling domain comprising a TLR2 signaling domain. H1975 cells are more resistant to EGFR inhibitors, so Osimeritinib was used at slightly higher concentration. H1975 lung adenocarcinoma cells harboring an EGFR mutation were co-cultured with CER-expressing or mock-transduced (vector only) CD4+ T cells with 1 μM of Osimeritinib. After 48 hours of co-culture at a 1:1 effector:target cell ratio, T cells were washed away, and the number of viable H1975 cells was quantified using a calorimetric LDH assay (FIG. 57). Cell viability experiments were performed in triplicate and presented as % of control.

| Molecule | killing of H1975 cells (LDH) |
| --- | --- |
| B1 | synergistic killing of H1975 lung adenocarcinoma cells upon EGFR inhibition |
| B2 | synergistic killing of H1975 lung adenocarcinoma cells upon EGFR inhibition |
| B3 | synergistic killing of H1975 lung adenocarcinoma cells upon EGFR inhibition |
| B4 | synergistic killing of H1975 lung adenocarcinoma cells upon EGFR inhibition |
| B5 | synergistic killing of H1975 lung adenocarcinoma cells upon EGFR inhibition |
| B6 | synergistic killing of H1975 lung adenocarcinoma cells upon EGFR inhibition |
